Values of other authors in US10709784B2, “Metal chelating compositions and methods for controlling the growth or activities of a living cell or organism” (CHELATION PARTNERS INCORPORATED, priority 2011, dated 2020).

Conditions: comparison value, molecular weight 80 kDa/mole

B1: lactoferrin: iron binding defence protein, molecular weight 80 kDa/mole (protein, UniProt P02788 20-710, looked up)
Lactotransferrin: GRRRSVQWCAVSQPEATKCFQWQRNMRKVRGPPVSCIKRDSPIQCIQAIAENRADAVTLDGGFIYEAGLAPYKLRPVAAEVYGTERQPRTHYYAVAVVKKGGSFQLNELQGLKSCHTGLRRTAGWNVPIGTLRPFLNWTGPPEPIEAAVARFFSASCVPGADKGQFPNLCRLCAGTGENKCAFSSQEPYFSYSGAFKCLRDGAGDVAFIRESTVFEDLSDEAERDEYELLCPDNTRKPVDKFKDCHLARVPSHAVVARSVNGKEDAIWNLLRQAQEKFGKDKSPKFQLFGSPSGQKDLLFKDSAIGFSRVPPRIDSGLYLGSGYFTAIQNLRKSEEEVAARRARVVWCAVGEQELRKCNQWSGLSEGSVTCSSASTTEDCIALVLKGEADAMSLDGGYVYTAGKCGLVPVLAENYKSQQSSDPDPNCVDRPVEGYLAVAVVRRSDTSLTWNSVKGKKSCHTAVDRTAGWNIPMGLLFNQTGSCKFDEYFSQSCAPGSDPRSNLCALCIGDEQGENKCVPNSNERYYGYTGAFRCLAENAGDVAFVKDVTVLQNTDGNNNEAWAKDLKLADFALLCLDGKRKPVTEARSCHLAMAPNHAVVSRMDKVERLKQVLLHQQAKFGRNGSDCPDKFCLFQSETKNLLFNDNTECLARLHGKTTYEKYLGPQYVAGITNLKKCSTSPLLEACEFLRK
- Fe bound per mole: 2 atoms of Fe/mole
